# Assay results published in patent publication US20140221287A1 (AstraZeneca / MedImmune, published 2014).
# No end group written: not given here.
# T1: human amylin receptor 3 (AMY3) (human, UniProt P30988 25-474; O60896 24-148)
# T1 sequence (looked up) 1: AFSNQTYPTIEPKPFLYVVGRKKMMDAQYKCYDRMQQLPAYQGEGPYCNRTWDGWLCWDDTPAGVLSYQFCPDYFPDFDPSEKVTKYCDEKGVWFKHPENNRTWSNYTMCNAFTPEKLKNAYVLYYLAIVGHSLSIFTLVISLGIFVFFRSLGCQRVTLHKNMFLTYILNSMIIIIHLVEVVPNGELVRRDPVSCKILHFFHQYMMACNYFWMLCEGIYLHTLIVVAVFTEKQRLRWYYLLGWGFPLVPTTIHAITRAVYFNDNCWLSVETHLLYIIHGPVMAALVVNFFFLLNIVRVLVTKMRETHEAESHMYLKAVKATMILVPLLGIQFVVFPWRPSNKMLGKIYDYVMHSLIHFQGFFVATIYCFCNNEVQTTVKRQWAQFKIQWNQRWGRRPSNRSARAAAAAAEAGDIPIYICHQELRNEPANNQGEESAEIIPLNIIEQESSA
# T1 sequence (looked up) 2: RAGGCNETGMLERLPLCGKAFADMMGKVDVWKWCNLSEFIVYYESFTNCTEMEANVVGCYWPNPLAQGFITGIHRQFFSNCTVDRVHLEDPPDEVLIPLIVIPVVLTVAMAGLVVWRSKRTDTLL
# Assays:
# [1] = biological target: T1, human amylin receptor 3 (AMY3); test: cell-based or functional assay
# [2] = biological target: T2, amylin receptor in membranes prepared from the nucleus accumbens portion of the brain (rat) (rat); test: displacement of 125I-rat amylin from rat nucleus accumbens membranes
# T2 construct: whole, on cells; Native tissue membranes
# Description: Plate was incubated for 1 hour at room temperature on a shaker. Plate was dried for 1.5 hours at 50° C., then overnight at room temperature.
# Receptor binding activity can be expressed, for example in Table 3, as an IC₅₀ value, calculated from the raw data using an iterative curve-fitting program using a 4-parameter logistic equation (PRISM®, GraphPAD Software, La Jolla, Calif.), as known in the art.
# [3] = biological target: T1, human amylin receptor 3 (AMY3); test: displacement of 125I-rat amylin from crude membranes of HEK293 cells expressing human AMY3 (hCalcR + RAMP3)
# Description: The crude membranes were incubated with 20 pM ¹²⁵I. (Perkin Elmer Cat#NEX4480) (2000 Ci/mmol) and increasing concentration of test peptide. […] The Unifilter® plates were washed several times using ice cold PBS using a MicroMate 96 Cell Harvester (Perkin Elmer).
# The potency (IC₅₀) of test peptide was determined by the analysis of a concentration-response curve using non-linear regression analysis fitted to a 4-parameter curve. Binding affinities were calculated using GraphPad Prism® software (GraphPad Software, Inc., San Diego, Calif.).
Binder,"EC50 (nM), cAMP accumulation (HTRF) [1] [nM]",IC50 [2] [nM],IC50 [3] [nM]
"CNTATCATQRLANFLVHSSNNFGPK(mPEG40KD)LPPTNVGSNTY-NH2 (ends and bridges not checked, also called Compound 29) [Cmpd 29, [K^26(mPEG40KD)]-Cmpd 12]",0.114,39,60
"CNTATCATQRLANFLVHSSNNFK(mPEG40KD)PILPPTNVGSNTY-NH2 (ends and bridges not checked, also called Compound 32) [Cmpd 32, [K^24(mPEG40KD)]-Cmpd 14]",0.598,79,111
"CNTATCATQRLANFLVHSSK(mPEG40KD)NFGPILPPTNVGSNTY-NH2 (ends and bridges not checked, also called Compound 28) [Cmpd 28, [K^21(mPEG40KD)]-Cmpd 11]",2.58,131,388
"CNTATCATQRLANFLVK(mPEG40KD)SSNNFGPILPPTNVGSNTY-NH2 (ends and bridges not checked, also called Compound 40) [Cmpd 40, [K^18(mPEG40KD)]-Cmpd 37]",0.85,,238
"KCNTATCATQRLANFLVRSSNNLGPVLPPTNVGSNTY-NH2 (ends and bridges not checked, also called Compound 1) [Cmpd 1]",,0.1,

# More lines, now with the values ahead:
"EC50 (nM), cAMP accumulation (HTRF) [1] [nM]",IC50 [2] [nM],IC50 [3] [nM],Binder
0.145,61,80,"CNTATCATQRLANFLVHSSNNFGPILPPTK(mPEG40KD)VGSNTY-NH2 (ends and bridges not checked, also called Compound 30) [Cmpd 30, [K^31(mPEG40KD)]-Cmpd 13]"
0.295,53,46,"CNTATCATQRLANFLVHSSNNFGPILK(mPEG40KD)PTNVGSNTY-NH2 (ends and bridges not checked, also called Compound 35) [Cmpd 35, [K^28(mPEG40KD)]-Cmpd 17]"
0.122,,143,"CNTATCATQRLANFLVHSSNNFGPILPPTNVGSK(mPEG40KD)TY-NH2 (ends and bridges not checked, also called Compound 42) [Cmpd 42, [K^35(mPEG40KD)]-Cmpd 39]"
0.126,31,48,"CNTATCATQRLANFLVHSSNNFGK(mPEG40KD)ILPPTNVGSNTY-NH2 (ends and bridges not checked, also called Compound 33) [Cmpd 33, [K^25(mPEG40KD)]-Cmpd 15]"
0.159,27,47,"CNTATCATQRLANFLVHSSNNFGPILPK(mPEG40KD)TNVGSNTY-NH2 (ends and bridges not checked, also called Compound 36) [Cmpd 36, [K^29(mPEG40KD)]-Cmpd 18]"
0.296,51,87,"CNTATCATQRLANFLVHSSNNFGPIK(mPEG40KD)PPTNVGSNTY-NH2 (ends and bridges not checked, also called Compound 34) [Cmpd 34, [K^27(mPEG40KD)]-Cmpd 16]"
0.034,,77,"CNTATCATQRLANFLVHSSNNFGPILPPTNVGK(mPEG40KD)NTY-NH2 (ends and bridges not checked, also called Compound 41) [Cmpd 41, [K^34(mPEG40KD)]-Cmpd 38]"
2.56,132,1130,"CNTATCATQRLANFLVHSSNNFGPK(Y‑shaped‑mPEG40KD)LPPTNVGSNTY-NH2 (ends and bridges not checked, also called Compound 31) [Cmpd 31, [K^26(Y-shaped-mPEG40KD)]-Cmpd 12]"
